Results reported in patent EP3831849A1 (LamKap Bio beta AG, dated 2021).
Numbering of substitutions follows the chain as printed.

T1: biotinylated recombinant human CEACAM5 (human, UniProt P06731 35-685, biotin on the C-terminal Avitag)
T1 construct: also called CD66e; not shown: C-terminal Avitag plus hexa-histidine tag, human Fc or mouse Fc
T1 sequence: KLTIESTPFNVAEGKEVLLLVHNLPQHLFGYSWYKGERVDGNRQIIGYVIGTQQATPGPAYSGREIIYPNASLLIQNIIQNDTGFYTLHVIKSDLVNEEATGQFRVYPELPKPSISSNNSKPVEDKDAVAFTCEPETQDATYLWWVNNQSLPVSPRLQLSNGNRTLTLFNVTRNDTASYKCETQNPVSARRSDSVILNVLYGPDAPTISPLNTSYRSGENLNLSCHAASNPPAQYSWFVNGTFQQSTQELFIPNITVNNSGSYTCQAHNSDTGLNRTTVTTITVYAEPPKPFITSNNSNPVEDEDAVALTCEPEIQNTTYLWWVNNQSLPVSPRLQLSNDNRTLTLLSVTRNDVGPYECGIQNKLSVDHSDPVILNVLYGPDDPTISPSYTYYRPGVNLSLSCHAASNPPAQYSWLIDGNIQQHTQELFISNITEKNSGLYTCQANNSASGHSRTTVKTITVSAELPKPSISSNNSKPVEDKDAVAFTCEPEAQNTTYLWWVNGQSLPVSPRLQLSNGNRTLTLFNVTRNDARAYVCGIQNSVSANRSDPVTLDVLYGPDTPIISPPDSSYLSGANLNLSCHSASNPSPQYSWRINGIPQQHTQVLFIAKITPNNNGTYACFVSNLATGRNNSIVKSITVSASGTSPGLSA

T2: human CEACAM5 expressed on MKN-45 wt cells (human, UniProt P06731 35-702)
T2 sequence: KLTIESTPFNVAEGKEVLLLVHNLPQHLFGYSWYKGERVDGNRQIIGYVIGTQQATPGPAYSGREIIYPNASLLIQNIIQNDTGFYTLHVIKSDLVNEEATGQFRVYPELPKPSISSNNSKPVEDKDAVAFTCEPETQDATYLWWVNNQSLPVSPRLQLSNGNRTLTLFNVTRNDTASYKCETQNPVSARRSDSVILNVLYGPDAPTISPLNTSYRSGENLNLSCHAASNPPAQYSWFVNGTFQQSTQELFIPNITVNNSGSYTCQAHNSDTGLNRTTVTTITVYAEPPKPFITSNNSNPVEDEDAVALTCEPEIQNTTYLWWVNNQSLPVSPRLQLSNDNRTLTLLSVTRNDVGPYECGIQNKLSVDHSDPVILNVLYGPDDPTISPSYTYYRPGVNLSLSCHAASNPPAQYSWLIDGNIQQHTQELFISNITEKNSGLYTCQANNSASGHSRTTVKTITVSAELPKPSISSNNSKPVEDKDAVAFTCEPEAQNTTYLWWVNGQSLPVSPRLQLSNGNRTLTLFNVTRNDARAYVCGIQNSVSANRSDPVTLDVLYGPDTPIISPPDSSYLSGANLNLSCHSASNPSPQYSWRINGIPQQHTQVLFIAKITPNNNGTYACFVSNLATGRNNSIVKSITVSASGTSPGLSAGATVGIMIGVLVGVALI

B1: AC49 (antibody, human IgG1, lambda, V domains shown)
VH: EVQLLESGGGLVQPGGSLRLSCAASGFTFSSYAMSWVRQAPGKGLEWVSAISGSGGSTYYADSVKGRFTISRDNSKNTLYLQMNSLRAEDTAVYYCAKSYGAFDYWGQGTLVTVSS
VL: QSVLTQPPSVSAAPGQKVTISCSGSSSNIFDSGVSWYQQLPGTAPKLLIYNHNERPSGIPDRFSGSKSGTSATLGITGLQTGDEADYYCGTWDFPPSRFVFGGGTKLTVLG
notes: Bivalent IgG1 mAb; 6 carries the IgG1 Fc; also called CEACAM5/CEACAM6 mAb AC49
B2: AC50 (antibody, human IgG1, lambda, V domains shown)
VH: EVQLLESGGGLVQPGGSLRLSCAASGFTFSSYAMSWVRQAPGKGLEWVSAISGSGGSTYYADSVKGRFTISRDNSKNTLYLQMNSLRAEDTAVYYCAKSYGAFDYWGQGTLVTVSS
VL: QSALTQPASVSGSPGQSITISCTGTSSDVYEFRLVSWYQQHPGKAPKLMIYFDSLRPSGVSNRFSGSKSGNTASLTISGLQAEDEADYYCSSWDKFGYAFNSVFGGGTKLTVLG
notes: Bivalent IgG1 mAb; 6 carries the IgG1 Fc; also called CEACAM5/CEACAM6 mAb AC50
B3: K2AC54 (bispecific antibody, human IgG1, kappa, lambda)
heavy: not shown
light 1: QSVLTQPPSVSGAPGQRVTISCTGSSSNIHDVGYVHWYQQLPGTAPKLLIYGASGRPSGVPDRFSGSKSGTSASLAITGLQAEDEADYYCQSYDTRQVVPTPVFGGGTKLTVLGQPKAAPSVTLFPPSSEELQANKATLVCLISDFYPGAVTVAWKADSSPVKAGVETTTPSKQSNNKYAASSYLSLTPEQWKSHRSYSCQVTHEGSTVEKTVAPTECS
light 2: not shown
notes: 6 is full length
B4: K2AC55 (bispecific antibody, human IgG1, kappa, lambda)
heavy: not shown
light 1: B3 light 1 with R96S, Q97A, V99F
light 2: not shown
notes: 6 is full length
B5: K2AC53 (bispecific antibody, human IgG1, kappa, lambda)
heavy: not shown
light 1: B3 light 1 with T95G, Q97A, V99F
light 2: not shown
notes: 6 is full length
B6: K2AC52 (bispecific antibody, human IgG1, kappa, lambda)
heavy: not shown
light 1: B3 light 1 with R96K, Q97R, V98E, V99F
light 2: not shown
notes: 6 is full length
B7: K2AC56 (bispecific antibody, human IgG1, kappa, lambda)
heavy: not shown
light 1: B3 light 1 with H30I, D31N, V32N, G33S, G52A, A53P, G55N, R96T, Q97G, V99M
light 2: not shown
notes: 6 is full length
B8: K2AC57 (bispecific antibody, human IgG1, kappa, lambda)
heavy: not shown
light 1: B3 light 1 with H30I, D31N, V32N, G33S, G52A, A53P, G55N, Q97F
light 2: not shown
notes: 6 is full length
B9: K2AC50 (bispecific antibody, human IgG1, kappa, lambda)
heavy: not shown
light 1: QSALTQPASVSGSPGQSITISCTGTSSDVYEFRLVSWYQQHPGKAPKLMIYFDSLRPSGVSNRFSGSKSGNTASLTISGLQAEDEADYYCSSWDKFGYAFNSVFGGGTKLTVLGQPKAAPSVTLFPPSSEELQANKATLVCLISDFYPGAVTVAWKADSSPVKAGVETTTPSKQSNNKYAASSYLSLTPEQWKSHRSYSCQVTHEGSTVEKTVAPTECS
light 2: not shown
B10: K2AC49 (bispecific antibody, human IgG1, kappa, lambda)
heavy: not shown
light 1: QSVLTQPPSVSAAPGQKVTISCSGSSSNIFDSGVSWYQQLPGTAPKLLIYNHNERPSGIPDRFSGSKSGTSATLGITGLQTGDEADYYCGTWDFPPSRFVFGGGTKLTVLGQPKAAPSVTLFPPSSEELQANKATLVCLISDFYPGAVTVAWKADSSPVKAGVETTTPSKQSNNKYAASSYLSLTPEQWKSHRSYSCQVTHEGSTVEKTVAPTECS
light 2: not shown
B11: AC58 (antibody, human IgG1, lambda, V domains shown)
VH: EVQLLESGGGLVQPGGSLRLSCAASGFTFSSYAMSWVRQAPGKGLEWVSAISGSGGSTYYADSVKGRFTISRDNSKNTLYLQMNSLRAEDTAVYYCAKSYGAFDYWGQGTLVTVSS
VL: QSVLTQPPSVSGAPGQRVTISCTGSSSNIGVAHDVHWYQQLPGTAPKLLIYDYSERPSGVPDRFSGSKSGTSASLAITGLQAEDEADYYCQSWDNGPNGLVWVFGGGTKLTVLG
notes: Bivalent IgG1 mAb derived from AC21 by lead optimization; 6 carries the IgG1 Fc)
B12: AC59 (antibody, human IgG1, lambda, V domains shown)
VH: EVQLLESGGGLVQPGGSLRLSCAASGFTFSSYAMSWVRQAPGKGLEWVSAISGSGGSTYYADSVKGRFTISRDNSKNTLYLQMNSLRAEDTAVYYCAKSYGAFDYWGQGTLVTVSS
VL: B11 VL with G96S, P97E, V101I, W102Y
notes: as for B11
B13: AC57 (antibody, human IgG1, lambda, V domains shown)
VH: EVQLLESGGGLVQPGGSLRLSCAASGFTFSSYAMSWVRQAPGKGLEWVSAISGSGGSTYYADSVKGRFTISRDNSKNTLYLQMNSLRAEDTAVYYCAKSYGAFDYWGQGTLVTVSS
VL: QSVLTQPPSVSGAPGQRVTISCTGSSSNIINNSYVHWYQQLPGTAPKLLIYAPSNRPSGVPDRFSGSKSGTSASLAITGLQAEDEADYYCQSYDTRFVVPTPVFGGGTKLTVLG
notes: Bivalent IgG1 mAb; 6 carries the IgG1 Fc
B14: K2AC41 (bispecific antibody, human IgG1, kappa, lambda)
heavy: not shown
light 1: DIQMTQSPSSLSASVGDRVTITCQASQEIAATLNWYQQKPGKAPKLLIYNYSTLETGVPSRFSGSGSGTDFTFTISSLQPEDIATYYCQQVGLNPENTTFGGGTKLTVLGQPKAAPSVTLFPPSSEELQANKATLVCLISDFYPGAVTVAWKADSSPVKAGVETTTPSKQSNNKYAASSYLSLTPEQWKSHRSYSCQVTHEGSTVEKTVAPTECS
light 2: not shown
notes: 6 is full length; CEACAM arm light chain hybrid (VK + lambda CL), CD47 arm (K2) fully kappa
B15: K2AC42 (bispecific antibody, human IgG1, kappa, lambda)
heavy: not shown
light 1: B14 light 1 with E28R, A31R, Y51F, T53A, N94D, E96N, N97L
light 2: not shown
notes: 6 is full length; CEACAM arm light chain hybrid, CD47 arm fully kappa
B16: K2AC43 (bispecific antibody, human IgG1, kappa, lambda)
heavy: not shown
light 1: B14 light 1 with E28N, A30P, A31R, L33I, N50D, Y51I, T53N, N97L
light 2: not shown
notes: as for B15
B17: AC41K2 H-CL1 (bispecific antibody, human IgG1, kappa, lambda)
heavy: not shown
light 1: not shown
light 2: DIQMTQSPSSLSASVGDRVTITCRASQSISSYLNWYQQKPGKAPKLLIYAASSLQSGVPSRFSGSGSGTDFTLTISSLQPEDFATYYCQQMHPRAPKTFGGGTKLTVLGQPKAAPSVTLFPPSSEELQANKATLVCLISDFYPGAVTVAWKADSSPVKAGVETTTPSKQSNNKYAASSYLSLTPEQWKSHRSYSCQVTHEGSTVEKTVAPTECS
notes: CEACAM5xCD47 κλ body, IgG1, common heavy chain
B18: AC43K2 H-CL1 (bispecific antibody, human IgG1, kappa, lambda)
heavy: not shown
light 1: not shown
light 2: B17 light 2
notes: CEACAM5xCD47 κλ body, IgG1, common heavy chain; CEACAM arm light chain fully kappa, CD47 arm light chain hybrid
B19: SM3E (antibody, V domains shown)
VH: QVKLEQSGAEVVKPGASVKLSCKASGFNIKDSYMHWLRQGPGQRLEWIGWIDPENGDTEYAPKFQGKATFTTDTSANTAYLGLSSLRPEDTAVYYCNEGTPTGPYYFDYWGQGTLVTVSS
VL: ENVLTQSPSSMSVSVGDRVNIACSASSSVPYMHWLQQKPGKSPKLLIYLTSNLASGVPSRFSGSGSGTDYSLTISSVQPEDAATYYCQQRSSYPLTFGGGTKLEIK
notes: also called anti-CEACAM5 antibody SM3E
B20: SAR (antibody, V domains shown)
VH: EVQLVESGGGLVQPGGSLRLSCAASGFVFSSYDMSWVRQAPGKGLEWVSYISSGGGITYYADSVKGRFTISRDNSKNTLYLQMNSLRAEDTAVYYCAAHYFGSSGPFAYWGQGTLVTVSS
VL: DIQMTQSPSSLSASVGDRVTITCRASENIFSYLAWYQQKPGKAPKLLIYNTRTLQSGVPSRFSGSGSGTDFTLTISSLQPEDFATYYCQHHYGTPFTFGQGTKLEIK
notes: also called mAb derived from Mab2_VLg5VHg2

Target: T1, biotinylated recombinant human CEACAM5
Experiment: ELISA; biotinylated recombinant protein on streptavidin plate; bivalent mAb titrated

Row | EC50 | Binder
1 | 0.1 nM | B1
2 | 0.09 nM | B2

Target: T2, human CEACAM5 expressed on MKN-45 wt …
Experiment: cell-based or functional assay

Row | EC50 (µg/mL) of phagocytosis | Binder
3 | 0.3 µg/mL | B3
4 | 0.9 µg/mL | B4
5 | 0.8 µg/mL | B5
6 | 1 µg/mL | B6
7 | 5 µg/mL | B7
8 | 1.6 µg/mL | B8

Target: T2, human CEACAM5 expressed on MKN-45 wt …
Experiment: cell-based or functional assay
Remark: another data set of the same source

Row | EC50 (µg/mL) of phagocytosis | Binder
9 | 0.07 µg/mL | B9
10 | 0.3 µg/mL | B10

Target: T3, recombinant cynomolgus monkey CEACAM5 (cynomolgus monkey (macaca fascicularis))
T3 construct: also called cyno CEACAM5; cynomolgus CEACAM5
Experiment: ELISA; biotinylated recombinant protein on streptavidin plate; bivalent mAb titrated

Row | EC50 | Binder
11 | 0.03 nM | B1
12 | 0.04 nM | B11
13 | 0.05 nM | B12
14 | 0.02 nM | B13
15 | 0.05 nM | B2

Target: T1, biotinylated recombinant human CEACAM5
Experiment: as above
Remark: another data set of the same source

Row | EC50 | Binder
16 | 0.1 nM | B1
17 | 0.04 nM | B11
18 | 0.05 nM | B12
19 | 0.01 nM | B13
20 | 0.09 nM | B2

Target: T2, human CEACAM5 expressed on MKN-45 wt …
Experiment: flow cytometry on MKN-45 wt cells (express CEACAM5 and CD47)

Row | EC50 | Emax (MFI) | Binder
21 | 145 nM | 1.41e+06 MFI | B14
22 | 123 nM | 1.52e+06 MFI | B15
23 | 135 nM | 1.77e+06 MFI | B16
24 | 146 nM | 1.52e+06 MFI | B17
25 | 121 nM | 2.08e+06 MFI | B18
26 | 19 nM | 2.75e+06 MFI | B3
27 | 221 nM | 3.9e+06 MFI | B4
28 | 38 nM | 2.63e+06 MFI | B5
29 | 219 nM | 3.3e+06 MFI | B6
30 | 47 nM | 1.59e+06 MFI | B7
31 | 91 nM | 2.26e+06 MFI | B8

Target: T4, human CD47 expressed at the surface of MKN45 cells (human, UniProt Q08722 19-323)
T4 construct: whole, on cells; also called IAP
T4 sequence (Q08722 19-323): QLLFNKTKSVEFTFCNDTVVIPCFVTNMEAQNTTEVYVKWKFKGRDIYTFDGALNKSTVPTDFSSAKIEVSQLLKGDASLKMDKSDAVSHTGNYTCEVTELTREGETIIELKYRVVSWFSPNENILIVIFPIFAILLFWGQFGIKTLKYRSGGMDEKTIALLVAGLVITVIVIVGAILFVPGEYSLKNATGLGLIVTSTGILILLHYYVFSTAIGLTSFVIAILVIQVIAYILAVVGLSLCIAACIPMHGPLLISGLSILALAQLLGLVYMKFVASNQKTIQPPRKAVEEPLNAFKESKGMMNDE
Experiment: inhibition of SIRPα mouseFc binding to CD47 on MKN45 cells; imaging (CX5)

Row | IC50 | Binder
32 | 3.7 nM | B14
33 | 2.9 nM | B15
34 | 3.9 nM | B16
35 | 6.8 nM | B17
36 | 3.2 nM | B18
37 | 0.16 nM | B3
38 | 1.6 nM | B4
39 | 0.3 nM | B5
40 | 1.1 nM | B6
41 | 2.8 nM | B7
42 | 1.1 nM | B8

Target: T1, biotinylated recombinant human CEACAM5
Experiment: reference mAb in the competition ELISA on biotinylated human CEACAM5

Row | binding result | Binder
43 | binds | B19
44 | binds | B20
